Patent US8795990B2, “Recombinant enzyme with altered feedback sensitivity” (Metabolic Explorer, priority 2004, dated 2014)

Test system: S-adenosylmethionine synthetase
Experiment: S-adenosylmethionine synthetase (MAT) activity in vitro in crude extracts, FIA-MS/MS
Format: biochemical, E. coli
Conditions: 10 mM methionine, 10 mM ATP, 37° C., 30 minutes

B1: MetK* S273F (protein, UniProt P0A817 2-384, looked up, variant S273F)
S-adenosylmethionine synthase: AKHLFTSESVSEGHPDKIADQISDAVLDAILEQDPKARVACETYVKTGMVLVGGEITTSAWVDIEEITRNTVREIGYVHSDMGFDANSCAVLSAIGKQSPDINQGVDRADPLEQGAGDQGLMFGYATNETDVLMPAPITYAHRLVQRQAEVRKNGTLPWLRPDAKSQVTFQYDDGKIVGIDAVVLSTQHSEEIDQKSLQEAVMEEIIKPILPAEWLTSATKFFINPTGRFVIGGPMGDCGLTGRKIIVDTYGGMARHGGGAFSGKDPSKVDRFAAYAARYVAKNIVAAGLADRCEIQVSYAIGVAEPTSIMVETFGTEKVPSEQLTLLVREFFDLRPYGLIQMLDLLHPIYKETAAYGHFGREHFPWEKTDKAQLLRDAAGLK
For B1, the “MAT (S-adenosylmethionine synthetase activity)” value was 2.2 mUI/mg prot.
